Measured values as given in article PMC11306395, “Structural basis for the interaction between human coronavirus HKU1 spike receptor binding domain and its receptor TMPRSS2” (Cell Discovery, 2024).

B1: HKU1-B (1B) spike S1 receptor-binding domain (domain or fragment)
chain: NLPDCDIDNWLNNVSVPSPLNWERRIFSNCNFNLSTLLRLVHVDSFSCNNLDKSKIFGSCFNSITVDKFAIPNRRRDDLQLGSSGFLQSSNYKIDISSSSCQLYYSLPLVNVTINNFNPSSWNRRYGFGSFNLSSYDVVYSDHCFSVNSDFCPCADPSVVNSCAKSKPPSAICPAGTKYRHCDLDTTLYVKNWCRCSCLPDPISTYSPNTCPQKKVVVGIGEHCPGLGINEEKCGTQLNHSSCFCSPDAFLGWSFDSCISNNRCNIFSNFIFNGINSGTTCSNDL
modifications: N-glycosylated; disulfides C504-C518 and C520-C533. Construct limits are only in the schematic (Fig. 1a), so they are taken from the paper's own deposited entity 8YQQ; the assayed construct may …
B2: HKU1-A (1A) spike S1 receptor-binding domain (domain or fragment)
chain: SGFTVKPVATVHRRIPDLPDCDIDKWLNNFNVPSPLNWERKIFSNCNFNLSTLLRLVHTDSFSCNNFDESKIYGSCFKSIVLDKFAIPNSRRSDLQLGSSGFLQSSNYKIDTTSSSCQLYYSLPAINVTINNYNPSSWNRRYGFNNFNLSSHSVVYSRYCFSVNNTFCPCAKPSFASSCKSHKPPSASCPIGTNYRSCESTTVLDHTDWCRCSCLPDPITAYDPRSCSQKKSLVGVGEHCAGFGVDEEKCGVLDGSYNVSCLCSTDAFLGWSYDTCVSNNRCNIFSNFILNGINSGTTCSNDLLQPNTEVFTDVCVDYDLYGITGQGIFKEVSAVYYNSWQNLLYDSNGNIIGFKDFVTNKTYNIFPCYAG
modifications: N-glycosylated; disulfides C504-C518 and C520-C533. Construct limits are only in the schematic (Fig. 1a), so they are taken from the paper's own deposited entity 8YOY (start and end shown match …)

Target: T1, transmembrane serine protease 2 (TMPRSS2) ectodomain (human, UniProt O15393 106-492)
T1 construct: Transmembrane serine protease 2 (TMPRSS2), ectodomain; also called TMRPSS2; source: purified
T1 sequence (O15393 106-492): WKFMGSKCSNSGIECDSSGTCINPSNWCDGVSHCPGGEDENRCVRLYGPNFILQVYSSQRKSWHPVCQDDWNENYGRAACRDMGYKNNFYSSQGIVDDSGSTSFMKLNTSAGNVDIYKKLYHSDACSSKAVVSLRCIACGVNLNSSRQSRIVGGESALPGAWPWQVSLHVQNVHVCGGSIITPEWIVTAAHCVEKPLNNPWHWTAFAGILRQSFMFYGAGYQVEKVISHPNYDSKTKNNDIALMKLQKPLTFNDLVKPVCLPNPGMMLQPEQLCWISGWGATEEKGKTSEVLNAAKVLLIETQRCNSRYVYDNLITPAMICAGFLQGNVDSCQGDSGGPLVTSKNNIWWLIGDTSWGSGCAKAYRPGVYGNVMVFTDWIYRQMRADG
Assay: BLI; bio-layer interferometry titrations of RBD-TMPRSS2; which partner was immobilised and the conditions are not told
Details: both partners purified

Binder | Kd [nM]
B1 | 170
B2 | 323
